Results on 76 sequences are retold here after the supplement of paper PMC7877785.

This data set can be described thus: self-splicing fitness, log relative to wild type (ln ratio); higher = more splicing; Tetrahymena group I intron in knt gene, E. coli kanamycin selection, DiMSum; sequences stand for … in CUCUCU…GGAGGGAAAAGUUAUCAGGCAUGCACCUGGUAGCUAGUCUUUAAACCAAUAGAUUGCAUCGGUUUAAAAGGCAAGACCGUCAAAUUGCGGGAAAGGGGUCAACAGCCGUUCAGUACCAAGUCUCAGGGGAAACUUUGAGAUGGCCUUGCAAAGGGUAUGGUAAUAAGCUGACGGACAUGGUCCUAACCACGCAGCCAAGUCCUAAGUCAACAGAUCUUCUGUUGAUAUGGAUGCAGUUCACAGACUAAAUGUCGGUCGGGGAAGAUGUAUUCUUCUCAUAAGAUAUAGUCGGACCUCUCCUUAAUGGGAGCUAGCGGAUGAAGUGAUGCAACACUGGAGCCGCUGGGAACUAAUUUGUAUGCGAAAGUAUAUUGAUUAGUUUUGGAGUACUCGUGGUCG
The procedure, abridged:
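Fitness was computed with DiMSum as the error-weighted combination of replicate fold changes, kanamycin versus none, each normalised to wild type. The library randomised all eight intron nucleotides of the P1ex region, with the intron placed in the knt kanamycin-resistance gene on pET-22b(+) in E. coli BL21(DE3). Six replicate transformations were grown overnight at 37°C or 30°C on LB agar with or without 25 μg/mL kanamycin, plus 100 μg/mL carbenicillin, 50 μM IPTG and 0.2% rhamnose. Pooled colonies were amplicon-sequenced on an Illumina HiSeq 2500.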

± gives the uncertainty stated by the source.

Turning to GGCAAGCAAUAUUACGGCAC, the “self-splicing fitness (ln)” value (30 °C) was -0.671 ± 0.071 and the “self-splicing fitness (ln)” value (37 °C) is 0.369 ± 0.12.
On to AUCGAGCAAUAUUACGCUUU, for which the “self-splicing fitness (ln)” value was -2.98 ± 0.15 (30 °C) and -2.29 ± 0.18 (37 °C).
GGUCAGCAAUAUUACGCCAU: the “self-splicing fitness (ln)” value is, setting by setting: (30 °C) -3.36 ± 0.3; (37 °C) -0.853 ± 0.17.
On to AUACAGCAAUAUUACGCUAU, for which the “self-splicing fitness (ln)” value (30 °C) was -3.03 ± 0.11 and the “self-splicing fitness (ln)” value (37 °C) is -1.29 ± 0.087.
For UGCAAGCAAUAUUACGCUGA, in that order: -2.78 ± 0.12 and -0.102 ± 0.09.
The like results for GUACAGCAAUAUUACGGAUC were, in that order, -0.86 ± 0.081 and -0.551 ± 0.11.
Take UCAGAGCAAUAUUACGAUCA: the “self-splicing fitness (ln)” value (30 °C) was -3.07 ± 0.35 and the “self-splicing fitness (ln)” value (37 °C) was -2.6 ± 0.31.
For UUUGAGCAAUAUUACGAACA, in that order: -2.9 ± 0.23 and -2.15 ± 0.21.
The like results for CCAAAGCAAUAUUACGUCGU were, in that order, -3.82 ± 0.19 and -2.75 ± 0.23.
The like results for AGGCAGCAAUAUUACGACUC were, in that order, -1.65 ± 0.14 and -1.01 ± 0.19.
Turning to AUCCAGCAAUAUUACGUCCU, the “self-splicing fitness (ln)” value by setting is: (30 °C) -1.47 ± 0.11; (37 °C) -0.253 ± 0.14.
Consider GGCAAGCAAUAUUACGCGCA, for which the “self-splicing fitness (ln)” value runs as follows: (30 °C) 0.145 ± 0.077; (37 °C) 0.461 ± 0.11.
In the case of CUGUAGCAAUAUUACGAUAC, the “self-splicing fitness (ln)” value (30 °C) is -2.43 ± 0.29.
Regarding UAUGAGCAAUAUUACGAGAC, the “self-splicing fitness (ln)” value by setting is: (30 °C) -2.85 ± 0.39; (37 °C) -2.4 ± 0.32.
As for ACGUAGCAAUAUUACGCUCA, the “self-splicing fitness (ln)” value is, setting by setting: (30 °C) -0.72 ± 0.12; (37 °C) 0.189 ± 0.11.
The like results for AUCUAGCAAUAUUACGUAGG were, in that order, -1.96 ± 0.14 and -0.273 ± 0.21.
The like results for UAGAAGCAAUAUUACGUCGG were, in that order, -0.813 ± 0.073 and -0.306 ± 0.091.
For CGGAAGCAAUAUUACGCGCA, in that order: -1.9 ± 0.11 and -1.08 ± 0.094.
UUAAAGCAAUAUUACGUCGU: the “self-splicing fitness (ln)” value was -1.76 ± 0.11 (30 °C) and -0.737 ± 0.12 (37 °C).
Consider UGGGAGCAAUAUUACGGAAU, for which the “self-splicing fitness (ln)” value (37 °C) is -1.69 ± 0.48.
GUCCAGCAAUAUUACGUCCG: the “self-splicing fitness (ln)” value runs as follows: (30 °C) -4.42 ± 0.29; (37 °C) -0.283 ± 0.22.
The like results for ACACAGCAAUAUUACGCGCA were, in that order, -0.103 ± 0.064 and 0.225 ± 0.079.
The like results for CGUUAGCAAUAUUACGUGGG were, in that order, -1.39 ± 0.12 and -1.79 ± 0.16.
For the sequence GCGAAGCAAUAUUACGAGAA, the “self-splicing fitness (ln)” value by setting is: (30 °C) -2.63 ± 0.46; (37 °C) -1.38 ± 0.26.
For ACCCAGCAAUAUUACGAUUA, in that order: -1.61 ± 0.09 and -1.41 ± 0.082.
For GGCAAGCAAUAUUACGAUUC, in that order: 0.184 ± 0.062 and 0.142 ± 0.091.
With AGUUAGCAAUAUUACGUGAA, the “self-splicing fitness (ln)” value is -2.78 ± 0.15 (30 °C) and -2.31 ± 0.2 (37 °C).
ACGCAGCAAUAUUACGAUGU: the “self-splicing fitness (ln)” value (30 °C) is -2.13 ± 0.057 and the “self-splicing fitness (ln)” value (37 °C) was -1.16 ± 0.078.
The like results for AGAGAGCAAUAUUACGUUGA were, in that order, -2.77 ± 0.23 and -2.06 ± 0.26.
For the sequence CGAGAGCAAUAUUACGUAAC, the “self-splicing fitness (ln)” value (37 °C) was -1.98 ± 0.34.
Turning to GCGCAGCAAUAUUACGUAUU, the “self-splicing fitness (ln)” value was -0.596 ± 0.081 (30 °C) and -0.709 ± 0.099 (37 °C).
As for UUUAAGCAAUAUUACGCCCU, the “self-splicing fitness (ln)” value is -0.119 ± 0.24 (30 °C) and 0.0801 ± 0.28 (37 °C).
The like results for CUGCAGCAAUAUUACGCAUU were, in that order, -4.22 ± 0.2 and -2.21 ± 0.23.
The like results for UUUCAGCAAUAUUACGUAAC were, in that order, -3.2 ± 0.23 and -2.4 ± 0.27.
Consider UCUAAGCAAUAUUACGAGAA, for which the “self-splicing fitness (ln)” value (30 °C) is -3.17 ± 0.5 and the “self-splicing fitness (ln)” value (37 °C) was -1.69 ± 0.39.
Take UGGAAGCAAUAUUACGAGAA: the “self-splicing fitness (ln)” value is, setting by setting: (30 °C) -2.05 ± 0.43; (37 °C) -1.73 ± 0.3.
As for CCUCAGCAAUAUUACGCGCU, the “self-splicing fitness (ln)” value (30 °C) is -2 ± 0.13 and the “self-splicing fitness (ln)” value (37 °C) was -2.79 ± 0.25.
For UUCCAGCAAUAUUACGCUUA, in that order: -0.131 ± 0.066 and -0.175 ± 0.077.
For UCCCAGCAAUAUUACGAAGG, in that order: -3.68 ± 0.23 and -1.63 ± 0.23.
Take UUAAAGCAAUAUUACGUGUA: the “self-splicing fitness (ln)” value by setting is: (30 °C) -0.993 ± 0.066; (37 °C) 0.0738 ± 0.08.
As for UUGCAGCAAUAUUACGAGUU, the “self-splicing fitness (ln)” value is, setting by setting: (30 °C) -4.24 ± 0.27; (37 °C) -3.36 ± 0.37.
For AUCCAGCAAUAUUACGUCAC, in that order: -2.35 ± 0.19 and -2.44 ± 0.22.
In the case of AAGGAGCAAUAUUACGGCAC, the “self-splicing fitness (ln)” value by setting is: (30 °C) -1.23 ± 0.47; (37 °C) -1.62 ± 0.46.
On to CUCAAGCAAUAUUACGUUGU, for which the “self-splicing fitness (ln)” value reads like this: (30 °C) -3.9 ± 0.36; (37 °C) -2.89 ± 0.23.
The like results for GUGCAGCAAUAUUACGAUUU were, in that order, -1.06 ± 0.1 and -0.209 ± 0.12.
The like results for AUUCAGCAAUAUUACGUGCG were, in that order, -0.448 ± 0.095 and -0.262 ± 0.13.
The like results for UACUAGCAAUAUUACGCCUA were, in that order, -0.895 ± 0.14 and 0.591 ± 0.13.
For the sequence UAACAGCAAUAUUACGCCAC, the “self-splicing fitness (ln)” value runs as follows: (30 °C) -3.93 ± 0.35; (37 °C) -1.54 ± 0.23.
Take UGCAAGCAAUAUUACGUCCU: the “self-splicing fitness (ln)” value runs as follows: (30 °C) -0.656 ± 0.094; (37 °C) -0.908 ± 0.098.
In the case of GUUUAGCAAUAUUACGGACC, under “30 °C”, the “self-splicing fitness (ln)” value was -2.41 ± 0.35.
Take GAAUAGCAAUAUUACGUACU: the “self-splicing fitness (ln)” value is, setting by setting: (30 °C) -0.732 ± 0.11; (37 °C) -0.151 ± 0.12.
On to UAUCAGCAAUAUUACGAUAU, for which the “self-splicing fitness (ln)” value by setting is: (30 °C) -2.41 ± 0.11; (37 °C) -1.64 ± 0.13.
For AUGUAGCAAUAUUACGGAUU, in that order: -1.57 ± 0.092 and -0.598 ± 0.091.
For CGCCAGCAAUAUUACGAGGU, in that order: -4.39 ± 0.28 and -1.89 ± 0.18.
On to AUUCAGCAAUAUUACGCAAA, for which the “self-splicing fitness (ln)” value is -1.04 ± 0.14 (30 °C) and -0.821 ± 0.16 (37 °C).
In the case of GUUGAGCAAUAUUACGCUUA, the “self-splicing fitness (ln)” value by setting is: (30 °C) -2.55 ± 0.21; (37 °C) -0.787 ± 0.17.
Consider CACUAGCAAUAUUACGGUGG, for which the “self-splicing fitness (ln)” value runs as follows: (30 °C) -2.3 ± 0.067; (37 °C) -0.616 ± 0.075.
For the sequence UCGCAGCAAUAUUACGCUGU, the “self-splicing fitness (ln)” value (30 °C) was -3.13 ± 0.14 and the “self-splicing fitness (ln)” value (37 °C) is -3.02 ± 0.19.
For AAGAAGCAAUAUUACGGGCA, in that order: -0.698 ± 0.092 and -0.225 ± 0.11.
For GUAAAGCAAUAUUACGGGUG, in that order: -1.6 ± 0.065 and -0.848 ± 0.091.
As to GCCGAGCAAUAUUACGUUUU, the “self-splicing fitness (ln)” value reads like this: (30 °C) -3.18 ± 0.18; (37 °C) -1.75 ± 0.14.
For GUCGAGCAAUAUUACGGAAA, in that order: -2.83 ± 0.23 and -2.11 ± 0.22.
As to UAAAAGCAAUAUUACGUUUC, the “self-splicing fitness (ln)” value is, setting by setting: (30 °C) -3.32 ± 0.14; (37 °C) -2.36 ± 0.19.
The like results for CGGUAGCAAUAUUACGACGG were, in that order, -0.359 ± 0.081 and 0.071 ± 0.12.
Turning to UCUUAGCAAUAUUACGAGUC, the “self-splicing fitness (ln)” value (37 °C) was -2.22 ± 0.36.
For the sequence GCCGAGCAAUAUUACGAGCG, the “self-splicing fitness (ln)” value is 0.333 ± 0.15 (30 °C) and -0.618 ± 0.19 (37 °C).
The like results for ACAAAGCAAUAUUACGGACA were, in that order, -1.29 ± 0.13 and -0.782 ± 0.11.
Turning to CCGCAGCAAUAUUACGGUGC, the “self-splicing fitness (ln)” value reads like this: (30 °C) -2.98 ± 0.18; (37 °C) -2.63 ± 0.22.
For UAGAAGCAAUAUUACGAGCU, in that order: -3.2 ± 0.25 and -1.18 ± 0.2.
The like results for AGUCAGCAAUAUUACGGGUC were, in that order, -1.27 ± 0.11 and -1.43 ± 0.15.
The like results for AGUCAGCAAUAUUACGUCCG were, in that order, -2.14 ± 0.12 and -1.29 ± 0.18.
Consider AGCGAGCAAUAUUACGCAGU, for which the “self-splicing fitness (ln)” value reads like this: (30 °C) -4.48 ± 0.28; (37 °C) -2.78 ± 0.25.
For GUACAGCAAUAUUACGGGAG, in that order: -3.04 ± 0.21 and -1.92 ± 0.15.
As for CAUCAGCAAUAUUACGGGUU, the “self-splicing fitness (ln)” value (30 °C) is -1.8 ± 0.067 and the “self-splicing fitness (ln)” value (37 °C) was -0.61 ± 0.08.
For UCGUAGCAAUAUUACGAUCA, in that order: -0.922 ± 0.19 and -0.511 ± 0.17.
In the case of ACACAGCAAUAUUACGCUUU, the “self-splicing fitness (ln)” value (30 °C) is -2.75 ± 0.14 and the “self-splicing fitness (ln)” value (37 °C) was -1.51 ± 0.098.
